Positions count from the first letter of the chain named. One block for each binder: values may come before it.
Assays:
[1] = target: T1, RNA polymerase III (17 subunits, incl. C160, C82/C34/C31, C53);Brf1N-TBPc-Brf1C chimera;Bdp1 (Saccharomyces cerevisiae;Saccharomyces …, UniProt P04051;P22276;P32349;P25441;P07703;P36121;P32910;P17890;P35718;P20434;P20435;P28 …, |internal_change|); test: cryo-EM; ITC; 4.1 Å; EMD-7530; PIC assembled at room temperature; assembly buffer not given in the material; conditions: protein: native;recombinant;recombinant; tags: TAP tag on C53 C terminus (TEV-cleaved, calmodulin eluted);C-terminal 6xHis;C-terminal 6xHis; copies: 1;1;1;1;1;1;1;1;1;1;1;1;1;1;1;1;1;1;1; label: biotin 5' on strand 3; mismatched bubble with RNA (strand 4, RNA written as printed); strands 2 and 3 both anneal to strand 1 (nick between them)
[2] = target: T1, RNA polymerase III (17 subunits, incl. …); test: cryo-EM; OC; 4.1 Å; EMD-7531; PIC assembled at room temperature; assembly buffer not given in the material; conditions: protein: native;recombinant;recombinant; tags: TAP tag on C53 C terminus (TEV-cleaved, calmodulin eluted);C-terminal 6xHis;C-terminal 6xHis; copies: 1;1;1;1;1;1;1;1;1;1;1;1;1;1;1;1;1;1;1; label: biotin 5' on strand 3; 10-nt mismatched bubble; strands 2 and 3 both anneal to strand 1 (nick between them)
[3] = target: T1, RNA polymerase III (17 subunits, incl. …); test: cryo-EM; nOC, spontaneously melted; 4.8 Å; EMD-7532; PIC assembled at room temperature; assembly buffer not given in the material; conditions: protein: native;recombinant;recombinant; tags: TAP tag on C53 C terminus (TEV-cleaved, calmodulin eluted);C-terminal 6xHis;C-terminal 6xHis; copies: 1;1;1;1;1;1;1;1;1;1;1;1;1;1;1;1;1;1;1; label: biotin 5' on strand 3; strand 1 fully paired; strands 2 and 3 both anneal to strand 1 (nick between them)
[4] = target: RNA polymerase III (17 subunits, incl. C160, C82/C34/C31, C53);Brf1N-TBPc-Brf1C chimera;Bdp1 Δ355-372 (Saccharomyces cerevisiae;Saccharomyces …, UniProt P04051;P22276;P32349;P25441;P07703;P36121;P32910;P17890;P35718;P20434;P20435;P28 …, |internal_change|del355-372); test: cryo-EM; iOC, Brf1 ZR and C34 WH1 disordered; 8.5 Å; EMD-7534; PIC assembled at room temperature; assembly buffer not given in the material; conditions: protein: native;recombinant;recombinant; tags: TAP tag on C53 C terminus (TEV-cleaved, calmodulin eluted);C-terminal 6xHis;C-terminal 6xHis; copies: 1;1;1;1;1;1;1;1;1;1;1;1;1;1;1;1;1;1;1; label: biotin 5' on strand 3; strand 1 fully paired; strands 2 and 3 both anneal to strand 1 (nick between them)
[5] = target: T1, RNA polymerase III (17 subunits, incl. …); test: cryo-EM; complex on EC scaffold, RNA not seen; 4.5 Å; EMD-7533; PIC assembled at room temperature; assembly buffer not given in the material; conditions: protein: native;recombinant;recombinant; tags: TAP tag on C53 C terminus (TEV-cleaved, calmodulin eluted);C-terminal 6xHis;C-terminal 6xHis; copies: 1;1;1;1;1;1;1;1;1;1;1;1;1;1;1;1;1;1;1; label: biotin 5' on strand 3; mismatched bubble +12 to +22 with RNA (strand 4); strands 2 and 3 both anneal to strand 1 (2-nt gap between them)
Bdp1 (B double prime) = target: T2, Bdp1 (B double prime) (Saccharomyces cerevisiae, UniProt P46678 1-594); test: cryo-EM structure; Pol III OC, 4.1 Å (TFIIIB 4.7 Å with soft mask): same assembly on the OC scaffold with a 10-nt mismatched bubble; conditions: both partners purified
T2 construct: Bdp1, S. cerevisiae, PCR amplified from genomic DNA; Cloned in pET21b(+) at SalI and NotI; The methods cite the purification of B''(138-594) only as the procedure followed; also called subunit of TFIIIB
T2 sequence: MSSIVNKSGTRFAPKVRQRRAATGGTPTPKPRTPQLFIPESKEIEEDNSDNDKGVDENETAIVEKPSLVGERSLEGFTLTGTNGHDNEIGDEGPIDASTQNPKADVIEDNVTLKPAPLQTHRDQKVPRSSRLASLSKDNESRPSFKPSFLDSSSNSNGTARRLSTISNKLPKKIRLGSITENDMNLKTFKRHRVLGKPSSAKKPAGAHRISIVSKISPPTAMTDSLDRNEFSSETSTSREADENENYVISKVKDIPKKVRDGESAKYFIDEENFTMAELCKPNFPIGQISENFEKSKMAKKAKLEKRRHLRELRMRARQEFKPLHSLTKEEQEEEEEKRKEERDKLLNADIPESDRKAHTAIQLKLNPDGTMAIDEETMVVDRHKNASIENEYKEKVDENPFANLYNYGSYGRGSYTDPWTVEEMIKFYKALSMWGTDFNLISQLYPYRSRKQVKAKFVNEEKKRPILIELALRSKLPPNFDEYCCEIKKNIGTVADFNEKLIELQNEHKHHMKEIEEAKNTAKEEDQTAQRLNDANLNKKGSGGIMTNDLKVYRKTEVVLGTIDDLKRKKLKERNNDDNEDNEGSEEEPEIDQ

Bdp1 Δ355–372 = target: T3, Bdp1 Δ355–372 (Saccharomyces cerevisiae, UniProt P46678 1-594, Δ355–372); test: cryo-EM structure; Pol III iOC (intermediate OC), about 8.5 Å (TFIIIB lobe 15-25 Å): assembly with Bdp1 Δ355–372 on the closed DNA scaffold, assembly buffer plus 60 mM KCl; map only, no model deposited; conditions: both partners purified
T3 construct: Same construct as m3 apart from the deletion; source: E. coli BL21 (DE3) pRARE, purified as the wild-type protein
T3 sequence (looked up): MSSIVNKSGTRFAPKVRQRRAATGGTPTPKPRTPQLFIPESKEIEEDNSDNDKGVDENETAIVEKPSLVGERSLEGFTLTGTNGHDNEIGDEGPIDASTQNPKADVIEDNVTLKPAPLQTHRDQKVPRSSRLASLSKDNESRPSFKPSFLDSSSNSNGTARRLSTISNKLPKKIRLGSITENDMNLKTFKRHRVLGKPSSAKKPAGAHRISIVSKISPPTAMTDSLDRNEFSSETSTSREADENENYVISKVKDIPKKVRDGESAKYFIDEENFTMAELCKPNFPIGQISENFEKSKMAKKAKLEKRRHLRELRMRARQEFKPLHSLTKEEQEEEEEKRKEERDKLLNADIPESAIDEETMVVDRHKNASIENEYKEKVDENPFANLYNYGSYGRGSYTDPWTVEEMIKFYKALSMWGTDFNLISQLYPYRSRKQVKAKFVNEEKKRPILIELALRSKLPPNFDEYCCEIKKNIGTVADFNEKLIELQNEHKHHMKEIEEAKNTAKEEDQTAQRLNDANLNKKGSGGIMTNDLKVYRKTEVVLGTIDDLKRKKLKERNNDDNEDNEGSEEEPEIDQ

B1: ITC scaffold with 6-mer RNA (mixed)
DNA 1: CAACTTGGCCATGGAGTCATTTTATCTTGTGTCACTTTTACAGAAAAAGTATTACTAATATATGTTGAAAAACTGGGGAATTCCATGGTCCGTA
DNA 2: TTTTCAACATATATTAGTAATACTTTTTCTGTATTTTTTTTTTTTTTTTAAATGACTCCATGGCCAAGTTG
DNA 3: TACGGACCATGGAATTCCCCAGT
?: ACAAGA
- binding result [1]: binds

B2: OC (open complex) scaffold (dsDNA)
DNA 1: B1 DNA 1
DNA 2: B1 DNA 2 with T44A, T45A, T46G, T47A, T49A
DNA 3: TACGGACCATGGAATTCCCCAGT
- binding result [2]: binds

B3: CC (closed complex) scaffold (dsDNA)
DNA 1: B1 DNA 1
DNA 2: TTTTCAACATATATTAGTAATACTTTTTCTGTAAAAGTGACACAAGATAAAATGACTCCATGGCCAAGTTG
DNA 3: TACGGACCATGGAATTCCCCAGT
- binding result [3]: binds
- binding result [4]: binds

B4: EC scaffold with 20-mer RNA (mixed)
DNA 1: ACGCCTTAACCAACTTGGCCATGGAGTCATTTTATCTTGTGTCACTTTTACAGAAAAAGTATTACTAATATATGTTGAAAAACTGGGGAATTCCATGGTCCGTA
DNA 2: TTCAACATATATTAGTAATACTTTTTCTGTAAAAGTGACACAAGATAAAAATTTTTTTTGTCCAAGTTGGTTAAGGCGT
DNA 3: TACGGACCATGGAATTCCCCAGT
RNA: UUUUUUUUUUUAGACUCCAU
- binding result [5]: binds

- binding result (Bdp1 (B double prime)): binds
B5: C34 subunit of Pol III (natural protein, Saccharomyces cerevisiae, UniProt P32910 1-317, looked up)
chain: MSGMIENGLQLSDNAKTLHSQMMSKGIGALFTQQELQKQMGIGSLTDLMSIVQELLDKNLIKLVKQNDELKFQGVLESEAQKKATMSAEEALVYSYIEASGREGIWSKTIKARTNLHQHVVLKCLKSLESQRYVKSVKSVKFPTRKIYMLYSLQPSVDITGGPWFTDGELDIEFINSLLTIVWRFISENTFPNGFKNFENGPKKNVFYAPNVKNYSTTQEILEFITAAQVANVELTPSNIRSLCEVLVYDDKLEKVTHDCYRVTLESILQMNQGEGEPEAGNKALEDEEEFSIFNYFKMFPASKHDKEVVYFDEWTI
notes: C34, subunit of the Pol III-specific heterotrimer C82/34/31, S. cerevisiae; WH1 residues 10-77, WH2 residues 78-158; Stood in the assay as a subunit of the whole Pol III; source: endogenous, purified from S. cerevisiae as a subunit of Pol III (TAP tag on C53)

- binding result (Bdp1 (B double prime)): binds
B6: TATA box-binding protein (TBP) core domain, the TBPc part of the chimera Brf1N-TBPc-Brf1C (domain or fragment, Saccharomyces cerevisiae, UniProt P13393 61-240, looked up)
chain: SGIVPTLQNIVATVTLGCRLDLKTVALHARNAEYNPKRFAAVIMRIREPKTTALIFASGKMVVTGAKSEDDSKLASRKYARIIQKIGFAAKFTDFKIQNIVGSCDVKFPIRLEGLAFSHGTFSSYEPELFPGLIYRMVKPKIVLLIFVSGKIVLTGAKQREEIYQAFEAIYPVLSEFRKM
notes: TBP, S. cerevisiae, core domain residues 61-240; In the assay TBPc stood inside the chain of the chimera m2, between Brf1 1-382 and Brf1 439-end; this molecule is made only for the rows of TBP with Brf1 and Bdp1; source: E. coli BL21 (DE3) pRARE, purified, as part of the chimera m2

- binding result (Bdp1 (B double prime)): binds
- binding result (Bdp1 Δ355–372): binds
B7: chimera protein Brf1N-TBPc-Brf1C (other, Saccharomyces cerevisiae)
chain: MPVCKNCHGTEFERDLSNANNDLVCKACGVVSEDNPIVSEVTFGETSAGAAVVQGSFIGAGQSHAAFGGSSALESREATLNNARRKLRAVSYALHIPEYITDAAFQWYKLALANNFVQGRRSQNVIASCLYVACRKEKTHHMLIDFSSRLQVSVYSIGATFLKMVKKLHITELPLADPSLFIQHFAEKLDLADKKIKVVKDAVKLAQRMSKDWMFEGRRPAGIAGACILLACRMNNLRRTHTEIVAVSHVAEETLQQRLNEFKNTKAAKLSVQKFRENDVEDGEARPPSFVKNRKKERKIKDSLDKEEMFQTSEEALNKNPILTQVLGEQELSSKEVLFYLKQFSERRARVVERIKATNGIDGENIYHEGSENETRKRKLSEAMPWSGIVPTLQNIVATVTLGCRLDLKTVALHARNAEYNPKRFAAVIMRIREPKTTALIFASGKMVVTGAKSEDDSKLASRKYARIIQKIGFAAKFTDFKIQNIVGSCDVKFPIRLEGLAFSHGTFSSYEPELFPGLIYRMVKPKIVLLIFVSGKIVLTGAKQREEIYQAFEAIYPVLSEFRKMGSGSGSGSGSGSPRNLHLLPTTDTYLSKVSDDPDNLEDVDDEELNAHLLNEEASKLKERIWIGLNADFLLEQESKRLKQEADIATGNTSVKKKRTRRRNNTRSDEPTKTVDAAAAIGLMSDLQDKSGLHAALKAAEESGDFTTADSVKNMLQKASFSKKINYDAIDGLFR
notes: Brf1 (TFIIB-related factor), S. cerevisiae, N-terminal part up to residue 382 (residues 383-438 of Brf1 were replaced by TBPc); linker between Brf1 residue 382 and TBP residue 61; linker between TBP residue 240 and Brf1 residue 439; Brf1, S. cerevisiae, C-terminal part from residue 439 to the end of full-length Brf1; Cloned in pET21b(+) at SalI and NotI; The printed offset (632-649 in the chimera …)

Reference: publication PMC6066478, “Structural visualization of RNA polymerase III transcription machineries” (Cell Discovery, 2018)
